Laboratory results: the supplement of paper PMC10567573

B1: CIB1 (parent)
chain: DLSRLVNCLTGEGEDTRLSASEMK
B2: CLPTM1 (parent)
chain: LGCYAVYSLLYLEHKGWYSWVLSM

Variants of: B1
Assay: protein stability index of a GFP-peptide fusion (GPS, HEK-293T) (PSI 1-6); higher = more stable
Details: c terminus: a fixed tail appended
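Note: lentivirally expressed fusions sorted by FACS into six bins by GFP to DsRed ratio, PSI derived from sequencing read proportions per bin multiplied by bin number.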

Row | Variant | protein stability index
1 | C8N | 3.02
2 | C8I | 2.4
3 | C8Y | 2.34
4 | C8P | 4.28
5 | C8G | 3.77
6 | C8A | 3.09
7 | C8L | 2.21
8 | C8E | 3.42
9 | C8K | 1.43
10 | C8V | 3.27
11 | C8M | 3.52
12 | C8Q | 3.95
13 | C8H | 2.81
14 | C8S | 3.63
15 | C8F | 2.46
16 | C8D | 4.3
17 | E14C | 3.36
18 | E14I | 2.6
19 | E14A | 2.37
20 | E14F | 2.2
21 | E14Q | 3.53
22 | E14H | 3.05
23 | E14P | 2.17
24 | E14Y | 2.83
25 | E14M | 2.06

Row | Variant | protein stability index
26 | E14D | 1.66
27 | E14T | 3.41
28 | E14N | 3.06
29 | E14L | 2.27
30 | E14K | 2.94
31 | E14R | 2.34
32 | L2S | 5
33 | L2W | 2.89
34 | L2P | 5.35
35 | L2I | 2.82
36 | L2M | 5.13
37 | L2Y | 3.82
38 | L2G | 5.22
39 | L2Q | 4.6
40 | L2E | 5.67
41 | L2F | 3.85
42 | L2A | 4.39
43 | L2C | 3.87
44 | L2N | 4.22
45 | L2D | 4.32
46 | L2K | 4.56
47 | L2H | 5.29
48 | D15N | 1.77
49 | D15M | 1.61
50 | D15P | 2.62

Row | Variant | protein stability index
51 | D15E | 3.52
52 | D15K | 3.1
53 | D15C | 2.19
54 | D15A | 3.61
55 | D15R | 2.67
56 | D15V | 1.54
57 | D15H | 3.49
58 | D15F | 2.32
59 | D15G | 3.83
60 | D15T | 2.12
61 | D15Y | 2.06
62 | T16M | 2.62
63 | T16E | 3.18
64 | T16H | 3.5
65 | T16V | 2.8
66 | T16K | 3.87
67 | T16N | 3.22
68 | T16G | 3.35
69 | T16Y | 2.49
70 | T16A | 2.46
71 | T16F | 2.07
72 | T16D | 3.58
73 | T16S | 2.48
74 | T16Q | 2.9
75 | T16L | 3.71

Row | Variant | protein stability index
76 | T16P | 4.07
77 | N7D | 4.32
78 | N7W | 2.2
79 | N7T | 2.62
80 | N7P | 4.6
81 | N7I | 2.59
82 | N7M | 2.09
83 | N7E | 4
84 | N7L | 3.85
85 | N7A | 3.12
86 | N7G | 2.74
87 | N7K | 2.84
88 | N7R | 3.09
89 | N7S | 3.63
90 | L9F | 3.35
91 | L9T | 3.02
92 | L9D | 3.23
93 | L9I | 3.04
94 | L9V | 4.17
95 | L9R | 2.54
96 | L9A | 1.75
97 | L9N | 4.24
98 | L9Y | 3.32
99 | L9S | 2.62
100 | L9Q | 3.25

Row | Variant | protein stability index
101 | L9E | 3.09
102 | L9M | 4.05
103 | L9P | 2.87
104 | L9H | 3.78
105 | S3I | 1.2
106 | S3Y | 2.79
107 | S3M | 3.1
108 | S3N | 2.39
109 | S3R | 2.43
110 | S3T | 2.32
111 | S3W | 1.38
112 | S3Q | 2.84
113 | S3G | 3.72
114 | S3E | 2.78
115 | S3C | 2.98
116 | S3F | 2.9
117 | S3L | 2.2
118 | S3K | 3.27
119 | T10I | 2.68
120 | T10F | 2.77
121 | T10C | 4.11
122 | T10L | 2.44
123 | T10E | 3.39
124 | T10P | 2.44
125 | T10D | 3.27

Row | Variant | protein stability index
126 | T10K | 2.9
127 | T10H | 3.94
128 | T10G | 2.92
129 | T10M | 2.11
130 | T10R | 2.15
131 | T10A | 3.49
132 | T10S | 3.17
133 | T10Y | 1.99
134 | T10W | 2.48
135 | T10V | 3.38
136 | T10Q | 3.61
137 | V6R | 3.94
138 | V6G | 2.36
139 | V6Q | 2.64
140 | V6I | 3.25
141 | V6E | 2.91
142 | V6T | 3.08
143 | V6W | 2.64
144 | V6D | 4.1
145 | V6L | 3.68
146 | V6C | 3.96
147 | V6M | 3.61
148 | V6P | 4.84
149 | V6S | 2.6
150 | V6N | 4.04

Row | Variant | protein stability index
151 | G11N | 3.7
152 | G11E | 3.98
153 | G11W | 2.34
154 | G11L | 2.88
155 | G11I | 3
156 | G11K | 3.49
157 | G11H | 3.81
158 | G11C | 3.16
159 | G11Y | 2.67
160 | G11T | 2.6
161 | G11S | 3.55
162 | G11F | 3.35
163 | G11R | 2.9
164 | G11Q | 3.03
165 | G11M | 2.84
166 | R4G | 3.8
167 | R4W | 3.45
168 | R4A | 3.8
169 | R4C | 3.65
170 | R4F | 3.88
171 | R4Q | 2.27
172 | R4Y | 2.85
173 | R4V | 2.01
174 | R4K | 3.12
175 | R4N | 2.39

Row | Variant | protein stability index
176 | R4M | 2.98
177 | R4I | 2.48
178 | R4H | 3.96
179 | R4P | 3.66
180 | R4L | 3.47
181 | R4E | 3.68
182 | R4T | 4.46
183 | E12H | 2.92
184 | E12F | 1.63
185 | E12T | 1.85
186 | E12R | 2.4
187 | E12C | 3.46
188 | E12W | 2.05
189 | E12I | 2.38
190 | E12L | 1.88
191 | E12Q | 2.43
192 | E12M | 3.22
193 | E12S | 2.44
194 | E12K | 3.29
195 | E12P | 3.04
196 | E12Y | 2.17
197 | E12G | 1.18
198 | E12A | 2.15
199 | E12D | 1.73
200 | E12V | 3.34

Row | Variant | protein stability index
201 | D1T | 2.06
202 | D1A | 2.84
203 | D1G | 3.69
204 | D1K | 4.18
205 | D1Y | 2.43
206 | D1S | 2.8
207 | D1Q | 3.56
208 | D1H | 3.25
209 | D1P | 4.33
210 | D1C | 2.65
211 | D1R | 3.68
212 | D1L | 2.04
213 | D1F | 2.77
214 | D1M | 2.49
215 | D1N | 2.89
216 | D1V | 1.95
217 | D1I | 2.3
218 | G13W | 2.4
219 | G13A | 3.62
220 | G13I | 3.55
221 | G13T | 3.16
222 | G13E | 3.07
223 | G13N | 2.71
224 | G13L | 2.53
225 | G13V | 2.65

Row | Variant | protein stability index
226 | G13S | 3.97
227 | G13P | 3.03
228 | G13H | 3.31
229 | G13R | 2.89
230 | G13M | 2.76
231 | G13Q | 2.54
232 | G13K | 3.45
233 | G13C | 2.94
234 | G13Y | 3.02
235 | L5K | 4.53
236 | L5P | 5.06
237 | L5V | 4
238 | L5Y | 2.27
239 | L5T | 3.61
240 | L5D | 4.39
241 | L5Q | 4.54
242 | L5R | 2.87
243 | L5C | 3.35
244 | L5A | 3.99
245 | L5H | 3.23
246 | L5F | 2.49
247 | L5G | 5
248 | R17D | 4.12
249 | R17A | 3.68

Variants of: B2
Assay: as above
Details: c terminus: a fixed tail appended

Row | Variant | protein stability index
250 | V21C | 4.16
251 | V21N | 3.02
252 | V21I | 1.96
253 | V21W | 3.42
254 | V21H | 2.45
255 | V21S | 3.6
256 | V21L | 2.77
257 | V21D | 1.56
258 | V21M | 2.45
259 | V21F | 2.12
260 | V21G | 2.62
261 | V21T | 2.31
262 | V21A | 2.45
263 | V21K | 2.12
264 | V21P | 3.65
265 | V21Y | 2.63
266 | V21E | 3.46
267 | V21R | 1.99
268 | W20V | 3.55
269 | W20R | 2.84
270 | W20C | 3.98
271 | W20P | 3.37

Row | Variant | protein stability index
272 | W20L | 2.91
273 | W20I | 3.33
274 | W20N | 3.58
275 | W20H | 1.87
276 | W20T | 2.45
277 | W20Q | 2.07
278 | W20E | 3.54
279 | W20F | 1.72
280 | W20M | 3.21
281 | W20S | 2.21
282 | W20G | 2.21
283 | W20D | 2.14
284 | W20K | 2.65
285 | M24Q | 3.62
286 | M24H | 3.76
287 | M24Y | 2.41
288 | M24S | 2.46
289 | M24E | 5.08
290 | M24N | 2.39
291 | M24R | 2.3
292 | M24T | 2.61
293 | M24K | 3.6

Row | Variant | protein stability index
294 | M24C | 4.42
295 | M24F | 4.41
296 | M24P | 3.83
297 | M24A | 2.39
298 | M24I | 2.67
299 | M24W | 3.77
300 | M24D | 2.05
301 | M24V | 3.57
302 | M24L | 2.6
303 | M24G | 4.14
304 | L22T | 1.98
305 | L22F | 3.46
306 | L22A | 3.33
307 | L22I | 3.34
308 | L22C | 4.24
309 | L22S | 3.49
310 | L22K | 2.01
311 | L22G | 1.72
312 | L22R | 2.45
313 | L22P | 3.42
314 | L22W | 2.58
315 | L22E | 3.17

Row | Variant | protein stability index
316 | L22Y | 3.5
317 | L22M | 2.11
318 | L22Q | 2.18
319 | S19Y | 2.62
320 | S23F | 2.11
321 | S23L | 2.41
322 | S23G | 2.17
323 | S23H | 2.63
324 | S23W | 3.03
325 | S23I | 3.17
326 | S23M | 3.15
327 | S23R | 2.26
328 | S23N | 2.27
329 | S23V | 1.82
330 | S23Y | 2.49
331 | S23P | 4.18
332 | S23Q | 3.11
333 | S23T | 1.72
334 | S23C | 3.78
